In patent US20240058465A1 (SUTRO BIOPHARMA, published 2024):
Positions count from the first letter of the chain named.

B1: Conjugate 21 (D04-F404-LP32) (antibody, human IgG1, kappa)
heavy: MEVQLVESGGGLVQPGGSLRLSCAASGFNISDYDIHWVRQAPGKGLEWVGGIDPADGSTDYADSVKGRFTISADTSKNTAYLQMNSLRAEDTAVYYCARDYGVYDYWGQGTLVTVSSASTKGPSVFPLAPSSKSTSGGTAALGCLVKDYFPEPVTVSWNSGALTSGVHTFPAVLQSSGLYSLSSVVTVPSSSLGTQTYICNVNHKPSNTKVDKKVEPKSCDKTHTCPPCPAPELLGGPSVFLFPPKPKDTLMISRTPEVTCVVVDVSHEDPEVKFNWYVDGVEVHNAKTKPREEQYNSTYRVVSVLTVLHQDWLNGKEYKCKVSNKALPAPIEKTISKAKGQPREPQVYTLPPSREEMTKNQVSLTCLVKGFYPSDIAVEWESNGQPENNYKTTPPVLDSDGSFLYSKLTVDKSRWQQGNVFSCSVMHEALHNHYTQKSLSLSPGK
light: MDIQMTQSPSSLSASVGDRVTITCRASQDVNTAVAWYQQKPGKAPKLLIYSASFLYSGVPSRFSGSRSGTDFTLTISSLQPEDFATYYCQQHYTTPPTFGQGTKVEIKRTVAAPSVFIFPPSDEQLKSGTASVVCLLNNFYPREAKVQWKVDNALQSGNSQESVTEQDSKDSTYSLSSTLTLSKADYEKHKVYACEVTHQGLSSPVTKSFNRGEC
modifications: pAMF at F404 (EU), linked to LP32
B2: Conjugate 19 (D04-F404-LP30) (antibody, human IgG1, kappa)
heavy: B1 heavy
light: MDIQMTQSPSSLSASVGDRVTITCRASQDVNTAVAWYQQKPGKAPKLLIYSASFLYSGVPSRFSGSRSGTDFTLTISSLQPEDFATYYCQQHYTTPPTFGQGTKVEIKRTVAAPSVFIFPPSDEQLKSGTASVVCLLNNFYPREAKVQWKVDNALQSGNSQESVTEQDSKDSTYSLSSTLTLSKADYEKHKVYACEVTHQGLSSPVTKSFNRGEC
modifications: pAMF at F404 (EU), linked to LP30
B3: Conjugate 17 (D04-F404-LP14) (antibody, human IgG1, kappa)
heavy: B1 heavy
light: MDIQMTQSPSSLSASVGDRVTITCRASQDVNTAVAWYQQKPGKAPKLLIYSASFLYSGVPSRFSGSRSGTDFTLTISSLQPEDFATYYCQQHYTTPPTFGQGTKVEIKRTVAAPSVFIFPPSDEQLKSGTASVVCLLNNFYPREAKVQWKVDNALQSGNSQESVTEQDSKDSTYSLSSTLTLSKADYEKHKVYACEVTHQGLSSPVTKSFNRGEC
modifications: pAMF at F404 (EU), linked to LP14
B4: Conjugate 25 (D04 x B09-F404-LP8 biparatopic) (bispecific antibody, human IgG1, kappa)
heavy 1: B1 heavy with T366W
heavy 2: MEVQLVESGGGLVQPGGSLRLSCAASGFNINNSYIHWVRQAPGKGLEWVGIIDPNNGSTAYADSVKGRFTISADTSKNTAYLQMNSLRAEDTAVYYCARSRWYRVLWSYVLDYWGQGTLVTVSSASTKGPSVFPLAPSSKSTSGGTAALGCLVKDYFPEPVTVSWNSGALTSGVHTFPAVLQSSGLYSLSSVVTVPSSSLGTQTYICNVNHKPSNTKVDKKVEPKSCDKTHTCPPCPAPELLGGPSVFLFPPKPKDTLMISRTPEVTCVVVDVSHEDPEVKFNWYVDGVEVHNAKTKPREEQYNSTYRVVSVLTVLHQDWLNGKEYKCKVSNKALPAPIEKTISKAKGQPREPQVYTLPPSREEMTKNQVSLSCAVKGFYPSDIAVEWESNGQPENNYKTTPPVLDSDGSFLVSKLTVDKSRWQQGNVFSCSVMHEALHNHYTQKSLSLSPGK
light: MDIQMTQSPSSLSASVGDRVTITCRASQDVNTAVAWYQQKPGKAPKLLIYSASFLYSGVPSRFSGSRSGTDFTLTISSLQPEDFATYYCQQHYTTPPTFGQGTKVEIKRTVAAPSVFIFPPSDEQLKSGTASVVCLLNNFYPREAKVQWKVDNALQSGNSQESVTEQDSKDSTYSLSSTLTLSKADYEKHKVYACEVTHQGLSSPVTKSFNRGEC
modifications: pAMF at F404 (EU), linked to LP8
B5: Conjugate 24 (D04 x C01-F404-LP8 biparatopic) (bispecific antibody, human IgG1, kappa)
heavy 1: B1 heavy with T366W
heavy 2: B1 heavy with S31N, D32G, G51Y, A55N, S58A, D60N, Y104F, T366S, L368A, Y406V
light: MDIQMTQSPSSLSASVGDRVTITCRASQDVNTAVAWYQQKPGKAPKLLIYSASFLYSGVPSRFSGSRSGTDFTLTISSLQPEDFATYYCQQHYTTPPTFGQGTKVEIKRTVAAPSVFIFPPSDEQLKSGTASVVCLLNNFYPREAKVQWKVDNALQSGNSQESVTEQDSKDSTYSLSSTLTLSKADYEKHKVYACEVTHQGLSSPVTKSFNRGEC
modifications: pAMF at F404 (EU), linked to LP8
B6: Conjugate 20 (D04-F404-LP31) (antibody, human IgG1, kappa)
heavy: B1 heavy
light: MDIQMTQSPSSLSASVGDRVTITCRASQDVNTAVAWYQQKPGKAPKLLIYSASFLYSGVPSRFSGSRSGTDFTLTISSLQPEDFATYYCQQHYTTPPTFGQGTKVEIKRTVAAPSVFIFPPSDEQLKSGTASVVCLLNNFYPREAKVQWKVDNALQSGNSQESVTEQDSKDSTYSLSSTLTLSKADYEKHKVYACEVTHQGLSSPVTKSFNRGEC
modifications: pAMF at F404 (EU), linked to LP31
B7: Conjugate 23 (D04 x D04-F404-LP8) (antibody, human IgG1, kappa)
heavy 1: B1 heavy with T366W
heavy 2: B1 heavy with T366S, L368A, Y406V
light: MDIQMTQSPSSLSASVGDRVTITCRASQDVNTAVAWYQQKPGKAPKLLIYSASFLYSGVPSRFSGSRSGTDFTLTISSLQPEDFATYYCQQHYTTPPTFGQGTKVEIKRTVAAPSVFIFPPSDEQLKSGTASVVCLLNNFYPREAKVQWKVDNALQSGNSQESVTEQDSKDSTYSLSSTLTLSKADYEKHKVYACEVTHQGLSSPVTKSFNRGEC
modifications: pAMF at F404 (EU), linked to LP8
B8: SRP2188-D04 (antibody, IgG1, V domains shown)
VH: EVQLVESGGGLVQPGGSLRLSCAASGFNISDYDIHWVRQAPGKGLEWVGGIDPADGSTDYADSVKGRFTISADTSKNTAYLQMNSLRAEDTAVYYCARDYGVYDYWGQGTLVTVSS
VL: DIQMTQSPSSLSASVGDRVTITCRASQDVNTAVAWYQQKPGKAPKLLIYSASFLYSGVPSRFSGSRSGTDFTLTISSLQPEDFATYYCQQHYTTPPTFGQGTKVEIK
notes: IgG1 with trastuzumab LC; HIS- and FLAG-tagged; cell-free expressed in the screen; also called mAb 42
B9: SRP2188-F06 (antibody, IgG1, V domains shown)
VH: B8 VH with S30L, A54D, S57A, Y103F
VL: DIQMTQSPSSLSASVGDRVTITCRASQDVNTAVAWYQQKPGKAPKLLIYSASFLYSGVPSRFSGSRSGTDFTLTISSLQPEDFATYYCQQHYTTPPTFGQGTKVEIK
notes: IgG1 with trastuzumab LC; HIS- and FLAG-tagged; cell-free expressed
B10: SRP2188-F08 (antibody, IgG1, V domains shown)
VH: B8 VH with S30P, Y32F, D33E, G49A, G50R, D52E, A54D, S57A, Y103F
VL: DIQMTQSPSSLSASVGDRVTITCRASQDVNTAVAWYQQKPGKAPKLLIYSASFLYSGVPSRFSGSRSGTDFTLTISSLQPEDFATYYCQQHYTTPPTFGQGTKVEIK
notes: as for B9
B11: SRP2188-G03 (antibody, IgG1, V domains shown)
VH: B8 VH with S30V, G49V, A54R, Y100F, Y103F
VL: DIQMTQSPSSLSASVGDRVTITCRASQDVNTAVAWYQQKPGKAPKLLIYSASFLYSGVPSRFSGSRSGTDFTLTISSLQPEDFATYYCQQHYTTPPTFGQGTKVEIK
notes: as for B9
B12: SRP2188-E01 (antibody, IgG1, V domains shown)
VH: B8 VH with S30G, G49V, A54Q, S57A, Y103F
VL: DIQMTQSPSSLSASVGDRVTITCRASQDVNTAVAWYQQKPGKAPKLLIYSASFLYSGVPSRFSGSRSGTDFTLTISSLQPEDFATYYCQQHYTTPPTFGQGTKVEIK
notes: as for B9
B13: SRP2188-E04 (antibody, IgG1, V domains shown)
VH: B8 VH with G49A, A54Q, T91A, Y100F, Y103F
VL: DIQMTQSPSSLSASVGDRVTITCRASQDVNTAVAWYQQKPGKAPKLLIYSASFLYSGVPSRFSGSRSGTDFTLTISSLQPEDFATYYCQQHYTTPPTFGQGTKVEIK
notes: as for B9
B14: SRP2188-E03 (antibody, IgG1, V domains shown)
VH: B8 VH with S30R, G49A, A54D
VL: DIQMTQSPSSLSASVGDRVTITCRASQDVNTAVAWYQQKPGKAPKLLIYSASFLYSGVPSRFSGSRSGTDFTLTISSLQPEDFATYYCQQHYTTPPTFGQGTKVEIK
notes: as for B9
B15: SRP2188-D09 (antibody, IgG1, V domains shown)
VH: B8 VH with S30R, G49V, A54G, Y100F, Y103F
VL: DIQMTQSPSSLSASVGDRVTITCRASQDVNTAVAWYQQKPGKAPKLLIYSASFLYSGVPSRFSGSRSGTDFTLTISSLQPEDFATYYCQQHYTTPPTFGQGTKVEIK
notes: as for B9
B16: SRP2188-G02 (antibody, IgG1, V domains shown)
VH: B8 VH with S30V, D31G, G42S, A54N, S57A, Y103F
VL: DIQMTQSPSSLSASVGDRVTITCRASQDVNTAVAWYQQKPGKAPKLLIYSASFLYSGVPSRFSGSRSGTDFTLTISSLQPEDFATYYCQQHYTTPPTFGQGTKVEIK
notes: as for B9
B17: SRP2188-F11 (antibody, IgG1, V domains shown)
VH: B8 VH with S30T, D31G, A54E, S57A, Y103F
VL: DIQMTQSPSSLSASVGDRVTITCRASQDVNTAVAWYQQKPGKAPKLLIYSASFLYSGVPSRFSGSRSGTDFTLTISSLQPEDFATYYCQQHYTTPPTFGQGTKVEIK
notes: as for B9
B18: SRP2188-D06 (antibody, IgG1, V domains shown)
VH: B8 VH with S30R, A54N, S57A, Y103F
VL: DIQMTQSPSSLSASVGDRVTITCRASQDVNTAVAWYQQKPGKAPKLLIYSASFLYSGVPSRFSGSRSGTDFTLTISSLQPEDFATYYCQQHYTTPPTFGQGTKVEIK
notes: as for B9
B19: Conjugate 22 (D04-Y180/F404-LP11) (antibody, human IgG1, kappa)
heavy: MEVQLVESGGGLVQPGGSLRLSCAASGFNISDYDIHWVRQAPGKGLEWVGGIDPADGSTDYADSVKGRFTISADTSKNTAYLQMNSLRAEDTAVYYCARDYGVYDYWGQGTLVTVSSASTKGPSVFPLAPSSKSTSGGTAALGCLVKDYFPEPVTVSWNSGALTSGVHTFPAVLQSSGLSLSSVVTVPSSSLGTQTYICNVNHKPSNTKVDKKVEPKSCDKTHTCPPCPAPELLGGPSVFLFPPKPKDTLMISRTPEVTCVVVDVSHEDPEVKFNWYVDGVEVHNAKTKPREEQYNSTYRVVSVLTVLHQDWLNGKEYKCKVSNKALPAPIEKTISKAKGQPREPQVYTLPPSREEMTKNQVSLTCLVKGFYPSDIAVEWESNGQPENNYKTTPPVLDSDGSFLYSKLTVDKSRWQQGNVFSCSVMHEALHNHYTQKSLSLSPGK
light: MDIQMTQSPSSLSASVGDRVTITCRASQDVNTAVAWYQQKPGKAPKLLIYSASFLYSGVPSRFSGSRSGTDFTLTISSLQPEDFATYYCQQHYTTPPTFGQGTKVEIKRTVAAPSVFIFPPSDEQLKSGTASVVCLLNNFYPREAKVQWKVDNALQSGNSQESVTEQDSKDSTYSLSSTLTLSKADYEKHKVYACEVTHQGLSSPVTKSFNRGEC
modifications: pAMF at Y180 and F404 (EU), each linked to LP11
B20: D04-Y180/F404-LP32 (printed under conjugate number 21, DAR 3.85) (antibody, human IgG1, kappa)
heavy: B19 heavy
light: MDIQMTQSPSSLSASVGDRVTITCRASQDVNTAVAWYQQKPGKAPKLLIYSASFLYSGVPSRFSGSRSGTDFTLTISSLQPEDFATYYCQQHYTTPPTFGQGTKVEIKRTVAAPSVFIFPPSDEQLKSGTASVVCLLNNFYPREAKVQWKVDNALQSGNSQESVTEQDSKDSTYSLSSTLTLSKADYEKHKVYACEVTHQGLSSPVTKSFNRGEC
modifications: pAMF at Y180 and F404 (EU), each linked to LP32
B21: Conjugate 1 (D04-Y180/F404-LP1) (antibody, human IgG1, kappa)
heavy: B19 heavy
light: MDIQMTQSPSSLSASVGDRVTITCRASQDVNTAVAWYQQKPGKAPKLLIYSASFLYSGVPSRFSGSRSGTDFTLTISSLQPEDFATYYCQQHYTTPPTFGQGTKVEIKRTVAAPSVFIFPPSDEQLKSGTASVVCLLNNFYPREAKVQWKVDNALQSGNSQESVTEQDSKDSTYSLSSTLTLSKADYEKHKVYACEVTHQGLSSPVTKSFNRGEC
modifications: pAMF at Y180 and F404 (EU), each linked to LP1

Assays:
[1] = biological target: receptor tyrosine kinase orphan receptor 1 (ROR1) on Ntera-2 cells (human, UniProt Q01973 30-937); assay: cell-based or functional assay
[2] = biological target: T1, human ROR1 (hROR1) expressed on cells (human, UniProt Q01973 30-937); assay: cell-based or functional assay
human ROR1-ECD = biological target: T2, human ROR1-ECD (human, UniProt Q01973 30-406); assay: SPR (Biacore), antibody captured by anti-Fc, human ROR1-ECD analyte
T2 construct: Bought protein; also called hROR1; ROR1-extracellular domain
Procedure: Anti-Fc polyclonal antibodies were immobilized onto a CMS chip (GE Life Sciences) using amine coupling chemistry (from Amine Coupling Kit, GE Life Sciences). The immobilization steps were carried out at a flow rate of 25 μL/min in 1×HBS-EP+buffer (GE Life Sciences; 10× Stock diluted before use). The sensor surfaces were activated for 7 min with a mixture of NHS (0.05 M) and EDC (0.2 M). The Anti-Fc antibodies were injected over all 4 flow cells at a concentration of 25 ug/ml in 10 mM sodium acetate, pH 4.5, for 7 min. Ethanolamine (1 M, pH 8.5) was injected for 7 min to block any remaining activated groups.
Off-rate and kinetic binding experiments were performed at 25° C. using 1×HBS-EP+buffer. Test and control antibodies were injected over the anti-Fc surface at concentrations of 5-10 μg/mL for 12 seconds at a flow rate of 10 μL/min on flow cells 2, 3 and 4, followed by a buffer wash for 30 seconds at the same flow rate. […] After capturing ligand (antibody) on the anti-Fc surface, the analyte (hROR1, Fz or Kr domains, Acro Biosystems, Delaware) was bound for 180 seconds, followed by a 600 second dissociation phase at a flow rate of 50 μL/min. Between each ligand capture and analyte binding cycle, regeneration was carried out using 2 injections of 10 mM Glycine pH 2.0 for 30 seconds at 30 μL/min, followed by a 30 second buffer wash step.

[3] = biological target: T1, human ROR1 (hROR1) expressed on cells; assay: flow cytometry, HCT116-hROR1 cells

Binder	cell killing EC50, NTERA-2 cells [1] [pM]	cell killing Span, NTERA-2 cells [1] [%]	Mino Nb-PBD, drug-conjugated 2° antibody Cell Killing IC50 [2] [pM]	Mino Nb-PBD, drug-conjugated 2° antibody Cell Killing Span [2] [%]	Kd (human ROR1-ECD) [pM]	koff (human ROR1-ECD) [s⁻¹]	kon (human ROR1-ECD) [M⁻¹ s⁻¹]	Bmax (MFI) [3] [MFI]	Kd [3] [pM]
B1	2960	97	–	–	–	–	–	–	–
B2	43	83	–	–	–	–	–	–	–
B3	30	77	–	–	–	–	–	–	–
B4	18	87	–	–	–	–	–	–	–
B5	17	85	–	–	–	–	–	–	–
B6	> 10000	> 60	–	–	–	–	–	–	–
B7	22	83	–	–	–	–	–	–	–
B8	–	–	1.4	69	426	0.000423	994000	9690	40
B9	–	–	0.55	75	384	0.000357	931000	10200	30
B10	–	–	0.71	75	428	0.000422	987000	9030	20
B11	–	–	0.97	70	373	0.000316	846000	8960	30
B12	–	–	1.5	69	827	0.000387	468000	9370	60
B13	–	–	0.87	66	604	0.000468	775000	9860	30
B14	–	–	1.3	65	464	0.000333	718000	10300	20
B15	–	–	1.3	70	366	0.00028	766000	8970	60
B16	–	–	0.47	74	490	0.000443	905000	8920	20
B17	–	–	0.99	68	313	0.000249	794000	9480	30
B18	–	–	1.5	69	628	0.000563	897000	9810	40
B19	> 10000	< 20	–	–	–	–	–	–	–
B20	> 10000	< 20	–	–	–	–	–	–	–
B21	85	56	–	–	–	–	–	–	–
